Results: patent publication US8367390B2, “Galactanase variants” (Novozymes A/S, priority 2002, dated 2013)
Like-named read-outs stand apart in the source and are kept apart here.

Columns and labels:
[1] = Degradation of MeGal3, products by HPAE-PAD; assay type: biochemical; conditions: for Gal2 in reaction products / Gal3 in reaction products / Gal in reaction products / MeGal2 in reaction products / MeGal3 in reaction products / MeGal in reaction products: MeGal3 0.25 mg/ml, pH 6.5, 37° C.
Experimental: (§1) The activity on the galacto-oligosaccharide substrates prepared as described above and on the commercially available galactobiose (Gal2, Megazyme) was studied for the four purified galactanases HIGAL, MTGAL, AAGAL and BLGAL. The buffers and temperatures used were: 25 mM sodium acetate, 0.5 mM CaCl2, 0.005% Triton X-100, pH 6.5 at 37° C. for HIGAL and MTGAL, 50 mM sodium acetate, 1 mM CaCl2, pH 4 at 30° C. for AAGAL and 50 mM Mes, 1 mM CaCl2, pH 6.5 at 30° C. for BLGAL. Enzyme concentrations used were 0.8 μg/ml for HIGAL, 0.2 microgram/ml for MTGAL, and 10 micrograms/ml for AAGAL and BLGAL. With HIGAL and MTGAL substrate concentrations were all 0.25 mg/ml, whereas 0.34 mg/ml Gal2, 0.050 mg/ml Gal3 and 0.067 mg/ml Gal4 were used for AAGAL and BLGAL. Enzyme activity in samples withdrawn after various incubation times was inactivated by heating to 95° C. for 10 min. Compositions of reaction products were analysed using HPAE-PAD (Dionex) applying a PA-100 column and a linear gradient of sodium acetate (0-0.18 M) in 0.15 M NaOH. Response factors of the individual carbohydrates were estimated from reference runs with MeGal3, MeGal4, Gal, Gal2, Gal3 and Gal4. Selected results are shown in Tables 2-8 below (the figures indicating weight percentage of glactooligosaccharides).

[2] = Activity on galactotriose (Gal3); assay type: biochemical; conditions: up to 24 hours; buffer, pH and temperature per enzyme
Experimental: as §1

[3] = Activity on galactobiose (Gal2); assay type: biochemical; conditions: in 24 hours; buffer, pH and temperature per enzyme
Experimental: as §1

[4] = Degradation of MeGal4, products by HPAE-PAD; assay type: biochemical; conditions: for Gal2 in reaction products / Gal3 in reaction products / Gal4 in reaction products / Gal in reaction products / MeGal2 in reaction products / MeGal3 in reaction products / MeGal4 in reaction products / MeGal in reaction products: MeGal4 0.25 mg/ml, pH 6.5, 37° C.
Experimental: as §1

[5] = assay type: biochemical; conditions: for Gal2 in reaction products / Gal3 in reaction products / Gal4 in reaction products / Gal in reaction products: Gal4 0.25 mg/ml, pH 6.5, 37° C.
Experimental: as §1

B1: MTGAL: GH Family 53 galactanase from Myceliophthora thermophila, SEQ ID NO: 1 (wild type parent) (protein, listed as Myceliophthora thermophila)
chain: ALTYRGVDWSSVVVEERAGVSYKNTNGNAQPLENILAANGVNTVRQRVWVNPADGNYNLDYNIAIAKRAKAAGLGVYIDFHYSDTWADPAHQTMPAGWPSDIDNLSWKLYNYTLDAANKLQNAGIQPTIVSIGNEIRAGLLWPTGRTENWANIARLLHSAAWGIKDSSLSPKPKIMIHLDNGWDWGTQNWWYTNVLKQGTLELSDFDMMGVSFYPFYSSSATLSALKSSLDNMAKTWNKEIAVVETNWPISCPNPRYSFPSDVKNIPFSPEGQTTFITNVANIVSSVSRGVGLFYWEPAWIHNANLGSSCADNTMFSQSGQALSSLSVFQRI
modifications: mat_peptide (1)..()
Gal2 in reaction products ([1]; incubation time 0.0 hours): 0.0 weight percentage
Gal3 in reaction products ([1]; incubation time 0.0 hours): 0.0 weight percentage
Gal in reaction products ([1]; incubation time 0.0 hours): 0.0 weight percentage
MeGal2 in reaction products ([1]; incubation time 0.0 hours): 0.0 weight percentage
MeGal3 in reaction products ([1]; incubation time 0.0 hours): 100.0 weight percentage
MeGal in reaction products ([1]; incubation time 0.0 hours): 0.0 weight percentage
Gal2 in reaction products ([1]; incubation time 0.5 hours): 0.0 weight percentage
Gal3 in reaction products ([1]; incubation time 0.5 hours): 0.0 weight percentage
Gal in reaction products ([1]; incubation time 0.5 hours): 0.0 weight percentage
MeGal2 in reaction products ([1]; incubation time 0.5 hours): 2.7 weight percentage
MeGal3 in reaction products ([1]; incubation time 0.5 hours): 87.2 weight percentage
MeGal in reaction products ([1]; incubation time 0.5 hours): 10.1 weight percentage
Gal2 in reaction products ([1]; incubation time 2.2 hours): 8.5 weight percentage
Gal3 in reaction products ([1]; incubation time 2.2 hours): 0.4 weight percentage
Gal in reaction products ([1]; incubation time 2.2 hours): 14.1 weight percentage
MeGal2 in reaction products ([1]; incubation time 2.2 hours): 1.9 weight percentage
MeGal3 in reaction products ([1]; incubation time 2.2 hours): 47.5 weight percentage
MeGal in reaction products ([1]; incubation time 2.2 hours): 27.6 weight percentage
Gal2 in reaction products ([1]; incubation time 5.0 hours): 10.9 weight percentage
Gal3 in reaction products ([1]; incubation time 5.0 hours): 15.7 weight percentage
Gal in reaction products ([1]; incubation time 5.0 hours): 2.2 weight percentage
MeGal2 in reaction products ([1]; incubation time 5.0 hours): 3.2 weight percentage
MeGal3 in reaction products ([1]; incubation time 5.0 hours): 50.6 weight percentage
MeGal in reaction products ([1]; incubation time 5.0 hours): 17.4 weight percentage
Gal2 in reaction products ([1]; incubation time 72.0 hours): 37.2 weight percentage
Gal3 in reaction products ([1]; incubation time 72.0 hours): 23.2 weight percentage
Gal in reaction products ([1]; incubation time 72.0 hours): 6.5 weight percentage
MeGal2 in reaction products ([1]; incubation time 72.0 hours): 3.5 weight percentage
MeGal3 in reaction products ([1]; incubation time 72.0 hours): 1.3 weight percentage
MeGal in reaction products ([1]; incubation time 72.0 hours): 28.3 weight percentage
Release of MeGal versus MeGal2 from MeGal3 ([1]; in words): much higher release of MeGal than MeGal2
Activity on Gal3, products [2]: degraded Gal3 to Gal2 and Gal
Activity on Gal2 [3]: Neither of the enzymes HIGAL, MTGAL, AAGAL or BLGAL had any detectable activity
Gal2 in reaction products ([4]; incubation time 0.0 hours): 0.0 weight percentage
Gal3 in reaction products ([4]; incubation time 0.0 hours): 0.0 weight percentage
Gal4 in reaction products ([4]; incubation time 0.0 hours): 0.0 weight percentage
Gal in reaction products ([4]; incubation time 0.0 hours): 0.0 weight percentage
MeGal2 in reaction products ([4]; incubation time 0.0 hours): 4.7 weight percentage
MeGal3 in reaction products ([4]; incubation time 0.0 hours): 14.8 weight percentage
MeGal4 in reaction products ([4]; incubation time 0.0 hours): 79.0 weight percentage
MeGal in reaction products ([4]; incubation time 0.0 hours): 1.6 weight percentage
Gal2 in reaction products ([4]; incubation time 0.5 hours): 3.3 weight percentage
Gal3 in reaction products ([4]; incubation time 0.5 hours): 13.7 weight percentage
Gal4 in reaction products ([4]; incubation time 0.5 hours): 2.5 weight percentage
Gal in reaction products ([4]; incubation time 0.5 hours): 0.9 weight percentage
MeGal2 in reaction products ([4]; incubation time 0.5 hours): 9.6 weight percentage
MeGal3 in reaction products ([4]; incubation time 0.5 hours): 17.1 weight percentage
MeGal4 in reaction products ([4]; incubation time 0.5 hours): 43.9 weight percentage
MeGal in reaction products ([4]; incubation time 0.5 hours): 8.9 weight percentage
Gal2 in reaction products ([4]; incubation time 2.0 hours): 10.9 weight percentage
Gal3 in reaction products ([4]; incubation time 2.0 hours): 23.9 weight percentage
Gal4 in reaction products ([4]; incubation time 2.0 hours): 3.7 weight percentage
Gal in reaction products ([4]; incubation time 2.0 hours): 4.8 weight percentage
MeGal2 in reaction products ([4]; incubation time 2.0 hours): 13.6 weight percentage
MeGal3 in reaction products ([4]; incubation time 2.0 hours): 16.0 weight percentage
MeGal4 in reaction products ([4]; incubation time 2.0 hours): 10.9 weight percentage
MeGal in reaction products ([4]; incubation time 2.0 hours): 16.2 weight percentage
Gal2 in reaction products ([4]; incubation time 5.0 hours): 20.1 weight percentage
Gal3 in reaction products ([4]; incubation time 5.0 hours): 17.9 weight percentage
Gal4 in reaction products ([4]; incubation time 5.0 hours): 2.9 weight percentage
Gal in reaction products ([4]; incubation time 5.0 hours): 12.4 weight percentage
MeGal2 in reaction products ([4]; incubation time 5.0 hours): 13.9 weight percentage
MeGal3 in reaction products ([4]; incubation time 5.0 hours): 9.9 weight percentage
MeGal4 in reaction products ([4]; incubation time 5.0 hours): 3.5 weight percentage
MeGal in reaction products ([4]; incubation time 5.0 hours): 19.3 weight percentage
Gal2 in reaction products ([4]; incubation time 24.0 hours): 32.7 weight percentage
Gal3 in reaction products ([4]; incubation time 24.0 hours): 3.4 weight percentage
Gal4 in reaction products ([4]; incubation time 24.0 hours): 1.1 weight percentage
Gal in reaction products ([4]; incubation time 24.0 hours): 24.2 weight percentage
MeGal2 in reaction products ([4]; incubation time 24.0 hours): 13.3 weight percentage
MeGal3 in reaction products ([4]; incubation time 24.0 hours): 2.3 weight percentage
MeGal4 in reaction products ([4]; incubation time 24.0 hours): 2.9 weight percentage
MeGal in reaction products ([4]; incubation time 24.0 hours): 20.1 weight percentage
Products from MeGal4 ([4]; in words, buffer, pH and temperature per enzyme): initial release mainly of MeGal, MeGal2 and Gal3 and some Gal2 but little Gal
Products of Gal4 (galactotetraose) degradation [5]: mainly to Gal and Gal2, whereas Gal3 did not accumulate
Gal2 in reaction products ([5]; incubation time 0.0 hours): 0.0 weight percentage
Gal3 in reaction products ([5]; incubation time 0.0 hours): 42.0 weight percentage
Gal4 in reaction products ([5]; incubation time 0.0 hours): 58.0 weight percentage
Gal in reaction products ([5]; incubation time 0.0 hours): 0.0 weight percentage
Gal2 in reaction products ([5]; incubation time 0.5 hours): 9.9 weight percentage
Gal3 in reaction products ([5]; incubation time 0.5 hours): 27.7 weight percentage
Gal4 in reaction products ([5]; incubation time 0.5 hours): 50.8 weight percentage
Gal in reaction products ([5]; incubation time 0.5 hours): 11.6 weight percentage
Gal2 in reaction products ([5]; incubation time 2.2 hours): 17.4 weight percentage
Gal3 in reaction products ([5]; incubation time 2.2 hours): 45.5 weight percentage
Gal4 in reaction products ([5]; incubation time 2.2 hours): 22.3 weight percentage
Gal in reaction products ([5]; incubation time 2.2 hours): 14.9 weight percentage
Gal2 in reaction products ([5]; incubation time 5.0 hours): 29.1 weight percentage
Gal3 in reaction products ([5]; incubation time 5.0 hours): 29.5 weight percentage
Gal4 in reaction products ([5]; incubation time 5.0 hours): 12.1 weight percentage
Gal in reaction products ([5]; incubation time 5.0 hours): 29.2 weight percentage
Gal2 in reaction products ([5]; incubation time 72.0 hours): 43.5 weight percentage
Gal3 in reaction products ([5]; incubation time 72.0 hours): 1.5 weight percentage
Gal4 in reaction products ([5]; incubation time 72.0 hours): 0.0 weight percentage
Gal in reaction products ([5]; incubation time 72.0 hours): 54.9 weight percentage
